{"source": "paper PMC6524640", "about": "(2019)", "binders": {"B1": {"name": "CEACAM1 short form peptide SFWT (peptide)", "chain": "HFGKTGSSGPLQ", "modifications": "not fully specified"}, "B2": {"name": "CEACAM1 long form peptide LFWT (peptide)", "chain": "HFGKTGRASDQR", "modifications": "not fully specified"}}, "biological_target": "calmodulin (Homo sapiens, UniProt P0DP23)", "assay": "NMR titration", "note": "No end group written: not given here.", "data": [{"binder": "B1", "values": [{"measurement": "Kd", "value": 1440, "unit": "µM"}]}, {"binder": "B2", "values": [{"measurement": "Kd", "value": 760, "unit": "µM"}]}]}
